Measurements from patent publication US20260217818A1 (Y BIOLOGICS, published 2026).

T1: human CLDN18.1 protein (EUPROTEIN, #EPY255141), coated antigen (human, UniProt P56856 1-261, limits assumed)
T1 construct: Bought antigen; also called CLDN18.1 antigen
T1 sequence (looked up): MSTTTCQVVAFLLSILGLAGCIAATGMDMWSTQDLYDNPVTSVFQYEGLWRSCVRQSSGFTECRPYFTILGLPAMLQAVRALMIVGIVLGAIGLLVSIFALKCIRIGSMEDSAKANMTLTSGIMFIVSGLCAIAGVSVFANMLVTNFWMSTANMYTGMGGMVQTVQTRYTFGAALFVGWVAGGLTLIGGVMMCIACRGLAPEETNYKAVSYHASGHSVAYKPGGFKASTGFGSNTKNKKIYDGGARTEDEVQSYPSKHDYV

T2: human CLDN18.2 protein (CUSABIO, #CSB-MP005498HU (A5)), coated antigen (human, UniProt P56856 1-261)
T2 construct: also called CLDN18.2 antigen; CLDN18.2-VLPs antigen
T2 sequence: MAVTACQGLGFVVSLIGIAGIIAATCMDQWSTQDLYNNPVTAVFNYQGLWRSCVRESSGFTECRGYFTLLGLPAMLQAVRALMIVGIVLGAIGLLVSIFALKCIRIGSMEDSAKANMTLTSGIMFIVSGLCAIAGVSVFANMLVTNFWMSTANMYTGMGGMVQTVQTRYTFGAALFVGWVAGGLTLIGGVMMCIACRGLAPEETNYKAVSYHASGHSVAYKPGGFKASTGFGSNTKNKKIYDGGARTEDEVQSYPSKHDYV

T3: human claudin-18.2 (claudin-18 spliced variant 2, CLDN18.2) overexpressed on HEK293E/18.2 or CHO-K1/18.2 cells (human, UniProt P56856 1-261)
T3 sequence: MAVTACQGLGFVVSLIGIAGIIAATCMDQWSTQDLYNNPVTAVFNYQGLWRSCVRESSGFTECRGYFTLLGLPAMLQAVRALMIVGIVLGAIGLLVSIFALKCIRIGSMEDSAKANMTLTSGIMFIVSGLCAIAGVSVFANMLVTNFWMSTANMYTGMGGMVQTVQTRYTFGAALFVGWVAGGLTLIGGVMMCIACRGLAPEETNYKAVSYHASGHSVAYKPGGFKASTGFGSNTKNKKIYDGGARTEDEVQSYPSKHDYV

B1: 0058-003 (antibody, V domains shown)
VH: QVQLVQSGGGLVQPGGSLRLSCAASGFTFSSYAMSWVRQAPGKGLEWVSAISGSGGSTYYADSVKGRFTISRDNSKNTLYLQMNSLRAEDTAVYYCARGAASSYYFDYWGLGTTVTVSS
VL: DIQMTQSPSSLAAYVGDTVTITCRASAGVRNYLAWVQQKPGKAPRSLIYGAFKLQSGVPSRFSGSGSGTEFTLTISSLQPEDFGTYYCQQYHSFPPTFGGGTKVDIK
notes: scFv clone from a human phage library, converted into IgG form for the experiments; also called anti-CLDN18.2 antibody 0058-003; monoclone 0058-003
B2: 0058-001 (antibody, V domains shown)
VH: QVQLVESGGGLVQPGGSLRLSCAASGFTFSSYAMSWVRQAPGKGLEWVAAISGSGGSTYFADSVRGRFTISRDNPQSTLYLQMNSLRAEDTAVYYCAKEGVWWLRYFDHWGQGTPITVSS
VL: QSALTQPRSVSGSPGQSVTISCTGTSNDVGGYTYVSWYQQHPGKAPKLMIYDVSKRPSGVPDRFSGSKSGNTASLTISGLQAEDEADYYCSSYAGSYTWVFGGGTKLTVL
notes: scFv clone from a human phage library, converted into IgG form for the experiments; also called anti-CLDN18.2 antibody 0058-001; monoclone 0058-001
B3: 0058-002 (antibody, V domains shown)
VH: QMQLVESGGGLVQPGGSLRLSCAASGFTFSSYAMSWVRQAPGKGLEWVSAISGSGGSTYYADSVKGRFTISRDNSKNTLYLQMNSLRAEDTAVYYCARGLGYYYYGMDVWGQGTTVTVSS
VL: DIQMTQSPSSLSASVGDRVTITCRASQTVSSWLAWYQQKPGKAPKLLIYAASSLQSGVPSRFSGSGSGTEFTLTISSLQPEDFGTYYCQQYHSFPPTFGGGTKVGIK
notes: scFv clone from a human phage library, converted into IgG form for the experiments; also called anti-CLDN18.2 antibody 0058-002; monoclone 0058-002

Key:
[1] = target: T1, human CLDN18.1 protein (EUPROTEIN, …); experiment: ELISA, CLDN18.1 coated at 1 µg/mL, serially diluted antibody
Experimental: (§1) CLDN18.1 (EUPROTEIN, #EPY255141) and CLDN18.2 (CUSABIO, #CSB-MP005498HU (A5)) proteins were each prepared at a concentration of 1 μg/mL using a dilution buffer (4% skim milk/0.05% tween-20/PBS), and 100 μL of each was added to individual wells of an immunoassay plate (Thermo, #439454) and incubated statically at 4° C. for more than 16 hours. After three washes with 300 μL of wash buffer (0.05% tween-20/PBS), 200 μL of blocking buffer (4% skim milk/0.05% tween-20/PBS) was added to the wells and incubated for 1 hour at room temperature. After three washes, 100 μL of the anti-CLDN18.2 antibodies, each prepared by serial dilution, was added to each well and incubated at room temperature for 1 hour with rocking. After three washes, 100 μL of anti-human kappa-HRP (Sigma, #A7164) antibody, prepared at dilution ratio of 1:3,000, was added to each well and incubated at room temperature for 1 hour. After three washes, 100 μL of TMB substrate (Sigma, #T0440) was added to each well and incubated in the dark at room temperature, and when color development was observed, 50 μL of stop solution (1N H₂SO₄) was added to stop the reaction. Absorbance was measured using a microplate reader (Promega, GM3000).

[2] = target: T2, human CLDN18.2 protein (CUSABIO, …); experiment: ELISA, CLDN18.2 coated at 1 µg/mL, serially diluted antibody
Experimental: as §1

[3] = target: T3, human claudin-18.2 (claudin-18 spliced …); experiment: cell-based or functional assay
[4] = target: T3, human claudin-18.2 (claudin-18 spliced …); experiment: cell-based or functional assay; remark: listed apart in the source

Row | Binder | binding result [1] | binding result [2] | Cell viability (%) at 10 nM, HEK293E/18.2 (Fab-ZAP assay) [3] [%] | IC50 (nM), HEK293E/18.2 (Fab-ZAP assay) [3] [nM] | cellular internalization (IncuCyte FabFluor, HEK293E/18.2 cells) [4] [%]
1 | B1 | no binding | binds | 56 | 0.04 | 50
2 | B2 | no binding | binds | 76 | 0.1 | 50
3 | B3 | no binding | binds | 58 | 0.04 | 50
